Data published in patent US7262271.

Test system: Antisera against the PAS1 peptides

Row | Substance | Arg-specific proteolytic activity | Lys-specific proteolytic activity
1 | P. gingivalis Arg-specific proteinase | Antisera against the PAS1 peptides inhibited both Arg- and Lys-specific proteolytic activity | 
2 | P. gingivalis Lys-specific proteinase |  | Antisera against the PAS1 peptides inhibited both Arg- and Lys-specific proteolytic activity
